This is an account of results in US20260022171A1.

The target in assay [1] is human CD200R1 on cells (human) (UniProt Q8TD46). Description: cell-based or functional assay.
Assay [2] shares this target. In words: flow cytometry, biotinylated antibody on human CD4+ T cells (pan T cells of a healthy donor), streptavidin-PE, geometric mean; unit from the axis Log M. In general terms: A flow cytometer gives signals particle by particle.
The target is the same in assay [3]. In words: flow cytometry, biotinylated antibody on human CD8+ T cells (pan T cells of a healthy donor), streptavidin-PE, geometric mean; unit from the axis log M.
For assay [4] the target is unchanged. In words: flow cytometry, blocking: U937 cells stably expressing hu-CD200R1 incubated with the antibody, then with 55 nM huCD200-Fc-Flag, detected with anti-Flag PE (MFI).
The target of assay [5] is cynomolgus monkey CD200R1 on cells (cynomolgus monkey). In words: cell-surface binding, cynomolgus CD4+ T cells.
For assay [6] the target is unchanged. In words: flow cytometry on cynomolgus monkey CD4+ T cells.
For assay [7] the target is unchanged. Description: cell-surface blocking, MfCD200-Fc on K562 cells expressing MfCD200R1.
Assay [8] has the same target. Description: flow cytometry, biotinylated antibody on cynomolgus monkey CD4+ T cells (PBMC), streptavidin-PE, MFI; monkey #143.
Assay [9] shares this target. In words: flow cytometry, biotinylated antibody on cynomolgus monkey CD4+ T cells (PBMC), streptavidin-PE, MFI; monkey #0013.
For assay [10] the target is unchanged. In words: flow cytometry, biotinylated antibody on cynomolgus monkey CD4+ T cells (PBMC), streptavidin-PE, MFI; monkey #0023.

B1: h22.1 (humanized 22.1 IgG) (antibody, V domains shown)
VH: EVQLVQSGAEVKKPGASVKVSCKASGYTFTSYVMFWVRQAPGQRLEWIGYINPYNDDTKYNEKFKGRATLTSDKSASTAYMELSSLRSEDTAVYYCAREDYYGSRFVYWGQGTLVTVSS
VL: DIQLTQSPSSLSASVGDRVTITCRASKSVSTSGYSYMHWYQQKPGKPPKLLIYLASNLESGVPSRFSGSGSGTDFTLTISSLQPEDFATYYCQHNRELLTFGGGTKVEIKR
For the molecule B1, the pDok2 induction, western blot, U937 cells expressing CD200R1 in assay [1] is 5.6 nM. The EC50 (in general, the concentration giving half of the maximal effect) in assay [2] is 3.04 nM; in assay [3], 1.91 nM. Further, the IC50 – broadly, the concentration that gives 50% inhibition – in [4] was 1.8 nM.

B2: h10F6.V1 (antibody, IgG1, V domains shown)
VH: EVQLQESGPGLVKPSETLSLTCTVSGFSLTNYRVSWVRQPPGKGLEWLGVMYAGGGTNYNSVFKSRLTISKDNSKNQVSLKLSSVTAADTAVYYCARERPLTGVMDNWGQGTLVTVSS
VL: DIVLTQSPDSLAVSLGERATINCRASESVDYSGNSFMHWFQQKPGQPPKLLIYRASNLESGIPDRFSGSGSRTDFTLTISSLQAEDVAVYYCHQSNWDPPTFGGGTKVEIKR
For the molecule B2, the EC50 is 1.3 nM in assay [5] and 0.34 to 1.54 nM in assay [6]. In [7], this molecule yielded an IC50 of 0.5 nM. Moreover, the EC50 (read off the curve) (as a rule, the midpoint of the concentration-response curve) in [8] was 1 nM; in [9] it was 1 nM; in [10] it was 0.9 nM.
